The results in this text go back to patent publication US20240398911A1.

Common to all, as to test: BLI, sACE22-IgG1 immobilized, RBD-8h analyte
For orientation: BLI is a label-free optical method that tracks binding on a fibre tip over time.

Assay [1] concerns the target 8his-tagged RBD of the S protein of bat coronavirus isolate Rs4084 (bat coronavirus Rs4084).
The target of assay [2] is 8his-tagged RBD of the S protein of bat coronavirus isolate RsSHC014 (bat coronavirus RsSHC014).
Assay [3] deals with 8his-tagged RBD of the S protein of bat coronavirus isolate Rs7327 (bat coronavirus Rs7327).
Assay [4] concerns the target 8his-tagged RBD of the S protein of bat coronavirus isolate Rs4231 (bat coronavirus Rs4231).
The target of assay [5] is 8his-tagged RBD of the S protein of bat coronavirus isolate LYRa11 (bat coronavirus LYRa11).

In general, Kd refers to a measure of binding affinity in units of concentration. Usually koff stands for the first-order rate constant of dissociation. A high value points to a short-lived complex. As a reminder, the kon is the second-order rate constant of association. Higher therefore signals faster complex formation.

Consider “wild type dimeric sACE22 (a.a. S19-G732) fused to the Fc of human IgG1 (from UniProt Q9BYF1 19-732) (Fc fusion)”, for which the dissociation constant (Kd) came to 85 nM in assay [1]; 29 nM in assay [2]; 63 nM in assay [3]; 69 nM in assay [4]; 91 nM in assay [5]. Moreover, the koff is 0.025 s⁻¹ in assay [1]; 0.026 s⁻¹ in assay [2]; 0.04 s⁻¹ in assay [3]; 0.022 s⁻¹ in assay [4]; 0.079 s⁻¹ in assay [5]. The kon in assay [1] stood at 290000 M⁻¹ s⁻¹; in assay [2] it was 880000 M⁻¹ s⁻¹; in assay [3], 640000 M⁻¹ s⁻¹; in assay [4], 320000 M⁻¹ s⁻¹; in assay [5], 870000 M⁻¹ s⁻¹.
